The chains are these.
B1: Microfibril-associated glycoprotein 4 (natural protein, human, UniProt P55083 22-255, looked up)
chain: VSGIRGDALERFCLQQPLDCDDIYAQGYQSDGVYLIYPSGPSVPVPVFCDMTTEGGKWTVFQKRFNGSVSFFRGWNDYKLGFGRADGEYWLGLQNMHLLTLKQKYELRVDLEDFENNTAYAKYADFSISPNAVSAEEDGYTLFVAGFEDGGAGDSLSYHSGQKFSTFDRDQDLFVQNCAALSSGAFWFRSCHFANLNGFYLGGSHLSYANGINWAQWKGFYYSLKRTEMKIRRA
modifications: intermolecular disulphide bond between C34 of two monomers; N-glycosylated at N87 and N137 (cryo-EM density)
notes: signal peptide in the construct; Q21 is the first residue after signal peptide cleavage; Octamer (8 copies) in TBS with 2 mM Ca2+; tetramer (4 copies) after Ca2+ depletion with EDTA or EGTA; also called MFAP4; source: HEK293 EBNA cells, transfected (pCEP4-MFAP4), conditioned medium, purified by nickel chelating chromatography

For data set [1], the target named is T1, latent transforming growth factor beta binding protein-4, long isoform (UniProt Q8N2S1-1 28-1624).
T1 construct: LTBP4, long isoform (LTBP4L); also called LTBP4L
T1 sequence (Q8N2S1 28-1624): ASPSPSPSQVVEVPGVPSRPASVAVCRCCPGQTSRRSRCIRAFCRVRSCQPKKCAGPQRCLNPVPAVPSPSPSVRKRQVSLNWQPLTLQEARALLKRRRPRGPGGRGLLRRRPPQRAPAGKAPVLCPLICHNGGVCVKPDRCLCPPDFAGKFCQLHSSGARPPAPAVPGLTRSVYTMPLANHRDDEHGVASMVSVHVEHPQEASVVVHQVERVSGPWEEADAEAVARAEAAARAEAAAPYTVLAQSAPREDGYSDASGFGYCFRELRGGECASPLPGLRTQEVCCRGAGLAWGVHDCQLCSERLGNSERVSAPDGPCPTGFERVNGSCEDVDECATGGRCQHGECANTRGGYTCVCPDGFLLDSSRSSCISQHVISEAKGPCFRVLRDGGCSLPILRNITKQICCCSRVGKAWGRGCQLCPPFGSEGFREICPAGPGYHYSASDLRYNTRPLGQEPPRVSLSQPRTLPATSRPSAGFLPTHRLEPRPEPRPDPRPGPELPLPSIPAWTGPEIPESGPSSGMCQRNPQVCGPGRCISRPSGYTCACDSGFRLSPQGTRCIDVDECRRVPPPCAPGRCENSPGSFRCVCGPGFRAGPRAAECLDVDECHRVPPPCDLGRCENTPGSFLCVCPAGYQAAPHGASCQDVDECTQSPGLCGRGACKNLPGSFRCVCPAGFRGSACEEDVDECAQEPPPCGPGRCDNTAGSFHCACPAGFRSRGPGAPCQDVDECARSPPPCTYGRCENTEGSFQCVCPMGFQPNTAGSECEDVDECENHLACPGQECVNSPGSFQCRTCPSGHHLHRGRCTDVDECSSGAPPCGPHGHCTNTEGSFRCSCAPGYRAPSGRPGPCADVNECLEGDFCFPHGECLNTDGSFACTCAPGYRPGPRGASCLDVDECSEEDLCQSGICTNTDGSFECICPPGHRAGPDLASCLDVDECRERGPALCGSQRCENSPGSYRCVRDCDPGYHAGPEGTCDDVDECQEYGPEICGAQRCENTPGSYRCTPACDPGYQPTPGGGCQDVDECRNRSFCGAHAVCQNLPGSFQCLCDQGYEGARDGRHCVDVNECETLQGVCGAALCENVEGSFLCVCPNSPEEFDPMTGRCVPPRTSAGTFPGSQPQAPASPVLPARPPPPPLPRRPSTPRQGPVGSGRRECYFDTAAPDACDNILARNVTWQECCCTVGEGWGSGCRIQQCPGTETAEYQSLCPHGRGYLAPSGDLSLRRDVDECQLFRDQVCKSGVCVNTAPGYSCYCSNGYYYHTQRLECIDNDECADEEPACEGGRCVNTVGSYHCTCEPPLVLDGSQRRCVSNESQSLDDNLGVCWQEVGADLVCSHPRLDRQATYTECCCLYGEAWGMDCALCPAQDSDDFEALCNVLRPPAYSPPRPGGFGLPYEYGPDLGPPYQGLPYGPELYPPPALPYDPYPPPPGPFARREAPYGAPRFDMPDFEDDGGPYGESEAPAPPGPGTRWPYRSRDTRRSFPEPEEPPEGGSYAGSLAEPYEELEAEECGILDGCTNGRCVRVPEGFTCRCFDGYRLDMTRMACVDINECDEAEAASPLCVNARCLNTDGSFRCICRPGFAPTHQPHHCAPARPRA
Briefly: SPR; Ca2+ form (octamer): MFAP4 or MFAP4_(C34S) amine-coupled on CM5 (Biacore X), elastogenic proteins as analytes 5-100 µg/mL in TBS/Ca2+ (2 mM CaCl2); 1:1 Langmuir fit, KD is the average over five concentrations. To be noted: both partners purified. (SPR reads the build-up and loss of mass on a sensor chip optically.)

In data set [2] the target is T2, recombinant human tropoelastin (human, UniProt P15502 27-786).
T2 construct: human tropoelastin, recombinant; source: bought: Elastagen
T2 sequence (looked up): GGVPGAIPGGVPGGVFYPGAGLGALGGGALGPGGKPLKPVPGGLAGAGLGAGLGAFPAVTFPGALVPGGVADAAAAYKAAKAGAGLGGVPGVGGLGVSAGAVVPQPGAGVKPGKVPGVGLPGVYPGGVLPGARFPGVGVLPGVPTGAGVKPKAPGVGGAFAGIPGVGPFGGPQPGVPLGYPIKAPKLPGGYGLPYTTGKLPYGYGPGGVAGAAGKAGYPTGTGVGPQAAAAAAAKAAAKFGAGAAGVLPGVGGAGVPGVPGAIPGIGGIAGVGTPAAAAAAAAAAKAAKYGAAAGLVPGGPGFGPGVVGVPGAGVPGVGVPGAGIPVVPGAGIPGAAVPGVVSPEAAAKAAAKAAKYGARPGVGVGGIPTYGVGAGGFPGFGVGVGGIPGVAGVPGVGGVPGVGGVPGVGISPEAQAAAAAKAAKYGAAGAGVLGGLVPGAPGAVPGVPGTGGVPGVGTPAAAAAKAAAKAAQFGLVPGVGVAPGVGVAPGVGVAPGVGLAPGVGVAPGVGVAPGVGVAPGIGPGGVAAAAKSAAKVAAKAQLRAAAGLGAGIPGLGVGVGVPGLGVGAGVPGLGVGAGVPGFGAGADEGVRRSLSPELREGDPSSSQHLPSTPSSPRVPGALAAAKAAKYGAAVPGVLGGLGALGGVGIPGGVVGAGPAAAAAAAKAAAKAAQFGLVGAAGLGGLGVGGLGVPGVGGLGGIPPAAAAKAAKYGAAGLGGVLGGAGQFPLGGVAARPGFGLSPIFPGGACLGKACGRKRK
The description is as above. The settings on record: both partners purified.

The next data set concerns the target T3, fibulin-4 (UniProt O95967 24-443).
T3 construct: fibulin-4, recombinant
T3 sequence (looked up): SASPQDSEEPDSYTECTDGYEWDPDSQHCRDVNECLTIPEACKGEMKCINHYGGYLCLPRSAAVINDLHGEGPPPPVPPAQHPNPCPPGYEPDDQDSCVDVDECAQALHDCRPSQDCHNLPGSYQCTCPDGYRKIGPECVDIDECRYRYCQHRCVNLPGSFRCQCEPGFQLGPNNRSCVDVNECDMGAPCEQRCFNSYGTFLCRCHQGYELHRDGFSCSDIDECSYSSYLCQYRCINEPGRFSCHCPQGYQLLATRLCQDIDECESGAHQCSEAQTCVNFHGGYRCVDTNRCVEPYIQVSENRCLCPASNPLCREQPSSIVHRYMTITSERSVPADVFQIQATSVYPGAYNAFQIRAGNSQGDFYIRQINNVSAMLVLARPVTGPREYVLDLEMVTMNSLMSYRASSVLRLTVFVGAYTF
The data set is described as above. To be noted: both partners purified.

The target of the next data set is T4, fibulin-5 (UniProt Q9UBX5 24-448).
T4 construct: fibulin-5, recombinant
T4 sequence (looked up): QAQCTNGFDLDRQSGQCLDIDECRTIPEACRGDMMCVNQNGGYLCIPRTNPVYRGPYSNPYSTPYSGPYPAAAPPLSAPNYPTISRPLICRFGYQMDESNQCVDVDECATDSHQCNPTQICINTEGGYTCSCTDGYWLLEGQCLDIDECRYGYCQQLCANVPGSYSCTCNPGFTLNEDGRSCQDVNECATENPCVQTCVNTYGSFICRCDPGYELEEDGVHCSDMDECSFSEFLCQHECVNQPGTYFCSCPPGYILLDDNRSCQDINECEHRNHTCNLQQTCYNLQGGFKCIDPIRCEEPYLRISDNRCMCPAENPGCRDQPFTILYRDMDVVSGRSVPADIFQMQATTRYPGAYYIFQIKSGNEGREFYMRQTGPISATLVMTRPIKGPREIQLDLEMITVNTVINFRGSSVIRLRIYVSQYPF
Described as above. To be noted: both partners purified.

Data set [3] deals with the molecule itself. Briefly: cryo-EM structure; MFAP4 after Ca2+ depletion with 5 mM EDTA; single particle analysis, C2 symmetry; tetramer.
Data set [4] concerns the molecule itself. In words: dynamic light scattering; TBS/Ca2+ (2 mM); mass from hydrodynamic radius by calibration with standard proteins, globular model; monomers to octamer.
Data set [5] deals with the molecule itself. In words: SPR; self-interaction of octamers; Biacore X, CM5 chip, MFAP4 or MFAP4_(C34S) amine-coupled (300-500 RU), same protein as analyte 5-100 µg/mL in TBS/Ca2+ (50 mM Tris-HCl pH 7.4, 150 mM NaCl, 2 mM CaCl2); 1:1 Langmuir fit, KD is the average over five concentrations.
Data set [6] deals with the molecule itself. Briefly: SDS-PAGE; non-reducing, 10% gel, Coomassie stain; disulphide-linked dimer.
Data set [7] deals with the molecule itself. In words: atomic force microscopy; MFAP4 or MFAP4_(C34S) Ca2+-depleted (5 mM EDTA); particle heights on mica, tapping mode in air.
The target in data set [8] is B1. Briefly: SPR; Ca2+ form (octamer): MFAP4 or MFAP4_(C34S) amine-coupled on CM5 (Biacore X), elastogenic proteins as analytes 5-100 µg/mL in TBS/Ca2+ (2 mM CaCl2); 1:1 Langmuir fit, KD is the average over five concentrations. To be noted: both partners purified.

Broadly, the Kd is the concentration at which binding is half-saturated. As usually defined, the stoichiometry N is a count of units in the complex or per binding partner.

Take B1: the Kd in data set [1] stood at 18 nM; in [2] it was 45 nM; with fibulin-4, 110 nM; in the data set with fibulin-5 it was 357 nM; in [5], 6.2 nM. The “stoichiometry N” value in data set [3] is 4; in data set [4], 8; in data set [6] it was 2.

B2: MFAP4_(C34S) (natural protein, human, UniProt P55083 22-255, looked up)
chain: VSGIRGDALERFSLQQPLDCDDIYAQGYQSDGVYLIYPSGPSVPVPVFCDMTTEGGKWTVFQKRFNGSVSFFRGWNDYKLGFGRADGEYWLGLQNMHLLTLKQKYELRVDLEDFENNTAYAKYADFSISPNAVSAEEDGYTLFVAGFEDGGAGDSLSYHSGQKFSTFDRDQDLFVQNCAALSSGAFWFRSCHFANLNGFYLGGSHLSYANGINWAQWKGFYYSLKRTEMKIRRA
notes: signal peptide in the construct; human MFAP4, M1KAL...IRRA255 with C34S; Q21 is the first residue after signal peptide cleavage; Octamer in TBS with Ca2+; tetramer after Ca2+ depletion; No intermolecular disulphide bond; also called MFAP_(C34S); source: HEK293 EBNA cells, transfected (pCEP4-MFAP4_(C34S)), conditioned medium, purified by nickel chelating chromatography
As to B2, the “stoichiometry N” value in data set [7] came out at 4; in data set [4], 8. The molecule further came in with a Kd in data set [5] of 5.8 nM.

B3: fibrillin-1 centre region fragment rF1M (domain or fragment)
chain: not shown
Take B3: the Kd in data set [8] amounted to 1.2 nM.

Source of the values: paper PMC11091212, “Microfibril-associated glycoprotein 4 forms octamers that mediate interactions with elastogenic proteins and cells” (Nature Communications, 2024).
